Results from patent US12545899B2, “Luciferase enzymes for use with thermostable luciferins in bioluminescent assays” (Promega Corporation, priority 2018, dated 2026).
Residue numbers refer to the chain shown, from its start. Names may count otherwise.

Tests used:
[1] = Differential scanning fluorimetry (DSF) analysis; type: physicochemical; conditions: Table 9B
Procedure, shortened: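 Enzymes mixed with Sypro Orange at 5× final, heated 30–95° C at 1° C per minute with fluorescence read every 60 s. Storage buffer 50 mM HEPES pH 7.5, 100 mM NaCl, 2 mM EDTA, or for luciferase variants 20 mM HEPES pH 7.5, 200 mM NaCl, 1 mM EDTA; per-minute fluorescence change plotted against temperature.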

[2] = Kinetic analysis of thermostable variants with D/L-luciferin (Table 10); type: biochemical
Description: (§1) Experiments were also conducted to evaluate the activities (i.e. Vmax and Km) of the various thermostable luciferase variants of Ppe (SEQ ID NO: 1) described above.
(§2) Tables 10 and 11 include representative results of kinetic analysis of the thermostable variants with D/L luciferin, CS0333, and CS0280. […] MK0135 and MK0137 have amino acid substitutions that improve thermostability relative to MK0133 and MK0134, respectively, while retaining activity on the luciferin analogs CS0333 and CS0280.

[3] = Kinetic analysis of thermostable variants with CS0333 (Table 10); type: biochemical
Description: as §1, §2

[4] = Kinetic analysis of thermostable variants with CS0280 (Table 10); type: biochemical
Description: as §1, §2

[5] = Luminescence at 1 mM D/L-luciferin (Table 11); type: biochemical; conditions: 1 mM substrate, 1 mM ATP
Description: as §2

[6] = Luminescence at 1 mM CS0333 (Table 11); type: biochemical; conditions: 1 mM substrate, 1 mM ATP
Description: as §2

[7] = Luminescence at 1 mM CS0280 (Table 11); type: biochemical; conditions: 1 mM substrate, 1 mM ATP
Description: as §2

[8] = Kinetic analysis of thermostable variants with D/L-luciferin (Tables 13, 14); type: biochemical; conditions: 2 mM ATP
[9] = Kinetic analysis of thermostable variants with CS0333 (Tables 13, 14); type: biochemical; conditions: 2 mM ATP
[10] = Kinetic analysis of thermostable variants with CS0280 (Tables 13, 14); type: biochemical; conditions: 2 mM ATP
[11] = E. coli lysate screen of epPCR/DNA shuffling variants with CS0280; type: biochemical; conditions: Detection Reagent, 1 mM ATP, 500 μM substrate, 3 mins
Description: (§3) These experiments included lysing E. coli cells expressing each luciferase enzyme variant in Detection Reagent containing 1 mM ATP+500 μM substrate. The cell lysate was incubated at room temperature for 3 mins and luminescence was read. The raw luminescence reading was normalized to the on-plate luminescence of ATG-2889, which was used as a control in this screen.

[12] = E. coli lysate screen of epPCR/DNA shuffling variants with CS0333; type: biochemical; conditions: Detection Reagent, 1 mM ATP, 500 μM substrate, 3 mins
Description: as §3

B1: MK0137: SEQ ID NO: 105; H244W+S193A+N228D+L305F+S306P+I109V+C38R+F55I+Y108F+A316W+Y339M+T342S+V348I (protein)
chain: MADKNILYGPEPFYPLEDGTAGEQMFDALSRYAAIPGRIALTNAHTKENVLYEEILKLSCRLAESFKKYGLKQNDTIAVCSENSLQFFLPVIASLYLGIIVAPVNDKFVERELIHSLGIVKPRIVFCSKNTFQKVLNVKSKLKSIETIIILDLNEDLGGYQCLNNFISQNSDSNLDVKKFKPYSFNRDDQVAAIMFSSGTTGLPKGVMLTHKNIVARFSIAKDPTFGDAINPTSAILTVIPFHWGFGMMTTLGYFTCGFRVVLMHTFEEKLFLQSLQDYKVESTLLVPTLMAFLAKSALVEKYDFPHLKEIASGGWPLSKEIGEMVKKRFKLNFVRQGMGLTEITSAVLITPKGDAKPGSTGKIVPLHAVKVVDPTTGKILGPNEPGELYFKGPMKMKGYYNNEEATKAIIDNDGWLRSGDIAYYDNDGHFYIVDRLKSLIKYKGYQVAPAEIEGILLQHPYIVDAGVTGIPDEAAGELPAAGVVVQTGKYLNEQIVQDYVASQVSTAKWLRGGVKFLDEIPKGSTGKIDRKVLRQMLEKHTNGHHHHHHHH
DSF Tm (° C.) [1]: 69 °C
Km ([2]; BrightGlo Buffer): 0.0368 µM
Vmax (RLU) ([2]; BrightGlo Buffer): 279,889 RLU
Km ([2]; Detection Reagent Buffer): 0.196 µM
Vmax (RLU) ([2]; Detection Reagent Buffer): 40,917 RLU
Km ([3]; BrightGlo Buffer): 7.17 µM
Vmax (RLU) ([3]; BrightGlo Buffer): 5,453,269 RLU
Km ([3]; Detection Reagent Buffer): 80.5 µM
Vmax (RLU) ([3]; Detection Reagent Buffer): 3,679,125 RLU
Km ([4]; BrightGlo Buffer): 2.92 µM
Vmax (RLU) ([4]; BrightGlo Buffer): 2,255,088 RLU
Km ([4]; Detection Reagent Buffer): 18.9 µM
Vmax (RLU) ([4]; Detection Reagent Buffer): 109,120 RLU
Vmax (RLU) D/L-luciferin BrightGlo Buffer ([5]; BrightGlo Buffer): 326,347 RLU
Vmax (RLU) D/L-luciferin Detection Reagent Buffer ([5]; Detection Reagent Buffer): 48,315 RLU
Vmax (RLU) CS0333 BrightGlo Buffer ([6]; BrightGlo Buffer): 3,882,620 RLU
Vmax (RLU) CS0333 Detection Reagent Buffer ([6]; Detection Reagent Buffer): 3,127,710 RLU
Vmax (RLU) CS0280 BrightGlo Buffer ([7]; BrightGlo Buffer): 1,931,470 RLU
Vmax (RLU) CS0280 Detection Reagent Buffer ([7]; Detection Reagent Buffer): 117,973 RLU
Km ([8]; BrightGlo Buffer): 0.0835 µM
Vmax (RLU) ([8]; BrightGlo Buffer): 253,978 RLU
Km ([8]; Detection Reagent Buffer): 0.306 µM
Vmax (RLU) ([8]; Detection Reagent Buffer): 29,013 RLU
Km ([9]; BrightGlo Buffer): 4.27 µM
Vmax (RLU) ([9]; BrightGlo Buffer): 3,236,246 RLU
Km ([9]; Detection Reagent Buffer): 18.8 µM
Vmax (RLU) ([9]; Detection Reagent Buffer): 668,831 RLU
Km ([10]; BrightGlo Buffer): 4.08 µM
Vmax (RLU) ([10]; BrightGlo Buffer): 825,876 RLU
Km ([10]; Detection Reagent Buffer): 535 µM
Vmax (RLU) ([10]; Detection Reagent Buffer): 88,972 RLU

B2: C4598F8: SEQ ID NO: 60; H244W+T344A+I396K+I109V+V262A+V287I+K309N (protein)
chain: MADKNILYGPEPFYPLEDGTAGEQMFDALSRYAAIPGCIALTNAHTKENVLYEEFLKLSCRLAESFKKYGLKQNDTIAVCSENSLQFFLPVIASLYLGIIVAPVNDKYVERELIHSLGIVKPRIVFCSKNTFQKVLNVKSKLKSIETIIILDLNEDLGGYQCLNNFISQNSDSNLDVKKFKPYSFNRDDQVASIMFSSGTTGLPKGVMLTHKNIVARFSIAKDPTFGNAINPTSAILTVIPFHWGFGMMTTLGYFTCGFRVALMHTFEEKLFLQSLQDYKVESTLLIPTLMAFLAKSALVEKYDLSHLNEIASGGAPLSKEIGEMVKKRFKLNFVRQGYGLTEATSAVLITPKGDAKPGSTGKIVPLHAVKVVDPTTGKILGPNEPGELYFKGPMKMKGYYNNEEATKAIIDNDGWLRSGDIAYYDNDGHFYIVDRLKSLIKYKGYQVAPAEIEGILLQHPYIVDAGVTGIPDEAAGELPAAGVVVQTGKYLNEQIVQDYVASQVSTAKWLRGGVKFLDEIPKGSTGKIDRKVLRQMLEKHTNGHHHHHHHH
Normalized luminescence (Mutant RLU/ATG2889 RLU) with CS0280 [11]: 5.88
Normalized luminescence (Mutant RLU/ATG2889 RLU) with CS0333 [12]: 4.91

B3: C4580E9: SEQ ID NO: 54; H244W+T344A+I396K+N228D+V287I (protein)
chain: B2 chain with V109I, N228D, A262V, N309K
Normalized luminescence (Mutant RLU/ATG2889 RLU) with CS0280 [11]: 4.00
Normalized luminescence (Mutant RLU/ATG2889 RLU) with CS0333 [12]: 6.51

B4: C4581C3: SEQ ID NO: 55; H244W+T344A+I396K+I109M+S193L (protein)
chain: B2 chain with V109M, S193L, A262V, I287V, N309K
Normalized luminescence (Mutant RLU/ATG2889 RLU) with CS0280 [11]: 3.88
Normalized luminescence (Mutant RLU/ATG2889 RLU) with CS0333 [12]: 1.04

B5: C4610C10: SEQ ID NO: 65; H244W+T344A+1396K+S306P (protein)
chain: B2 chain with V109I, A262V, I287V, S306P, N309K
Normalized luminescence (Mutant RLU/ATG2889 RLU) with CS0280 [11]: 3.60
Normalized luminescence (Mutant RLU/ATG2889 RLU) with CS0333 [12]: 4.32

B6: C4584D9: SEQ ID NO: 56; H244W+T344A+I396K+I109M+S193L+L294H (protein)
chain: B2 chain with V109M, S193L, A262V, I287V, L294H, N309K
Normalized luminescence (Mutant RLU/ATG2889 RLU) with CS0280 [11]: 12.41
Normalized luminescence (Mutant RLU/ATG2889 RLU) with CS0333 [12]: 2.67

B7: C4601C8: SEQ ID NO: 61; H244W+T344A+I396K+S193P (protein)
chain: B2 chain with V109I, S193P, A262V, I287V, N309K
Normalized luminescence (Mutant RLU/ATG2889 RLU) with CS0280 [11]: 4.53
Normalized luminescence (Mutant RLU/ATG2889 RLU) with CS0333 [12]: 3.32

B8: C4608E7: SEQ ID NO: 63; H244W+T344A+I396K+K121N+N228D+V287I (protein)
chain: B2 chain with V109I, K121N, N228D, A262V, N309K
Normalized luminescence (Mutant RLU/ATG2889 RLU) with CS0280 [11]: 5.26
Normalized luminescence (Mutant RLU/ATG2889 RLU) with CS0333 [12]: 6.86

B9: C4610H6: SEQ ID NO: 66; H244W+T344A+I396K+K107Q+N228D (protein)
chain: B2 chain with K107Q, V109I, N228D, A262V, I287V, N309K
Normalized luminescence (Mutant RLU/ATG2889 RLU) with CS0280 [11]: 3.67
Normalized luminescence (Mutant RLU/ATG2889 RLU) with CS0333 [12]: 4.15

B10: C4588H8: SEQ ID NO: 58; H244W+T344A+I396K+K107Q+L305F (protein)
chain: B2 chain with K107Q, V109I, A262V, I287V, L305F, N309K
Normalized luminescence (Mutant RLU/ATG2889 RLU) with CS0280 [11]: 6.56
Normalized luminescence (Mutant RLU/ATG2889 RLU) with CS0333 [12]: 3.90

B11: C4589D5: SEQ ID NO: 59; H244W+T344A+I396K+A40A+K107Q+S193T+A316S (protein)
chain: B2 chain with K107Q, V109I, S193T, A262V, I287V, N309K, A316S
Normalized luminescence (Mutant RLU/ATG2889 RLU) with CS0280 [11]: 12.42
Normalized luminescence (Mutant RLU/ATG2889 RLU) with CS0333 [12]: 3.79

B12: C4580B10: SEQ ID NO: 53; H244W+T344A+I396K+K107Q+S193T+V262A (protein)
chain: B2 chain with K107Q, V109I, S193T, I287V, N309K
Normalized luminescence (Mutant RLU/ATG2889 RLU) with CS0280 [11]: 9.35
Normalized luminescence (Mutant RLU/ATG2889 RLU) with CS0333 [12]: 4.64

B13: C4609F7: SEQ ID NO: 64; H244W+T344A+I396K+Y108F+V262A+L305F (protein)
chain: B2 chain with Y108F, V109I, I287V, L305F, N309K
Normalized luminescence (Mutant RLU/ATG2889 RLU) with CS0280 [11]: 3.90
Normalized luminescence (Mutant RLU/ATG2889 RLU) with CS0333 [12]: 6.04

B14: C4604A11: SEQ ID NO: 62; H244W+T344A+I396K+I109M+A316S (protein)
chain: B2 chain with V109M, A262V, I287V, N309K, A316S
Normalized luminescence (Mutant RLU/ATG2889 RLU) with CS0280 [11]: 12.16
Normalized luminescence (Mutant RLU/ATG2889 RLU) with CS0333 [12]: 2.41

B15: C4584G5: SEQ ID NO: 57; H244W+T344A+I396K+K107Q+L305F (protein)
chain: B2 chain with K107Q, V109I, A262V, I287V, L305F, N309K
Normalized luminescence (Mutant RLU/ATG2889 RLU) with CS0280 [11]: 4.39
Normalized luminescence (Mutant RLU/ATG2889 RLU) with CS0333 [12]: 3.42

B16: C4629G5: SEQ ID NO: 67; H244W+T344A+I396K+I236V (protein)
chain: B2 chain with V109I, I236V, A262V, I287V, N309K
Normalized luminescence (Mutant RLU/ATG2889 RLU) with CS0280 [11]: 5.06
Normalized luminescence (Mutant RLU/ATG2889 RLU) with CS0333 [12]: 2.26
